This note sets out measurements from patent US20230331820A1 (GlaxoSmithKline, published 2023).

Where two headings read alike, the source gives them in different places.

In test [1] the target is T1, gI WT: HSV2 gI wildtype ectodomain (HSV2, UniProt P06764 21-256). Put plainly: ELISA, supernatant. Background: ELISA stands for enzyme-linked immunosorbent assay.
Test [2] concerns the target T1, gI WT: HSV2 gI wildtype ectodomain. Put plainly: ELISA, supernatant. The source holds these as a separate data set.

B1: mAb clone 5 (antibody, V domains shown)
VH: EVKLVESGGGLVQPGGSLRLSCATSGFTFSDFYMEWVRQPPGKRLEWIAASRNKANDYTTEYSASVKGRFIVSRDTSQSILYLQMNALRAEDTAIYYCARDFLPYYGSPWFAYWGQGTLVTVSA
VL: DIVMTQSPATLSVTPGDRVSLSCRASQSISDYLHWYQQKSHESPRLLIKYASQSISGIPSRFSGSGSGSDFTLSINSVEPEDVGVYYCQNGHSFPYTFGGGTKLEIK
notes: also called mAb 5; GEGI/5IIa
B1: the binding result in test [1] is recorded as “no binding”.

B2: mAb clone 18 (antibody, V domains shown)
VH: QVQLQQSGAELVRPGTSVKMSCKAAGYTFTNYWIGWVKQRPGHGLEWIGDIYPGGGYTKYNEKFKGKATLTADTSSSTAYMQLSSLTSEDSAIYYCARDGYSPYWGQGTSLTVSS
VL: TIVMTQTPKFLLVSAGDRVTITCKASQSVSNAVAWYQQKPGQSPKLLIYSASNRYTGVPDRFTGSGYGTDFTFTISSVQAEDLAVYFCQQDYTSPFTFGSGTKLEIK
notes: also called mAb 18; mAb18
Take B2: the binding result in test [2] was “no binding”.
